Experimental data from patent publication US20250282885A1 (VST BIO, published 2025).

B1: R4M-P3-E06 (antibody, human IgG1, kappa, V domains shown)
VH: EVQLVESGGGVVQPGGSLRLSCAASGFTFSNYGMHWVRQAPGKGLEWVATISYDGTKKYYPDSVRGRFTISRDNSENMLYLQMDSLRLEDTAVIYCAKDLVSGSRYGFAFDSWGPGTLVTVSS
VL: DIVMTQSPLSLPVTLGQPASISCRSSQSLVHSDGNTYLNWFQQRPGQSPRRLIYKVSNRDSGVPDRFSGTGSGTDFTLKISRVEADDVGVYYCMQGTHWPPIFGQGTRLEIKR
notes: human IgG1 kappa from the phage campaign
B2: R3-P1-C02 (antibody, human IgG1, kappa, V domains shown)
VH: EVQLVESGGGVVQPGGSLRISCVASEFPFSDFGMHWVRQAPGKGLEWVAFVRSHGSGKYYADSVKGRFTISGDKSKSTLYLQMESLRPDDAAVYYCTTLADVWGQGTTVTVSS
VL: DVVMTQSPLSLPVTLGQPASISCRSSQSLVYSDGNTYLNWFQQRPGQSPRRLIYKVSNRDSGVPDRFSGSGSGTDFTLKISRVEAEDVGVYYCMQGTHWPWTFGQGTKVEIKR

Key:
human Sdc2 [1] = biological target: T1, human Sdc2 (human, UniProt P34741 19-144, limits assumed); test: Octet tandem binning; saturating Ab m7 19844-R3-P1-E07
T1 construct: Antigen of the Octet tandem binning, loaded on biosensors at 100 nM; also called huSdc2; hSdc2

human Sdc2 [2] = biological target: T1, human Sdc2; test: Octet tandem binning; saturating Ab m3 19844-R3-P1-C02 (row boxed, self-self >0.09)
human Sdc2 [3] = biological target: T1, human Sdc2; test: Octet tandem binning; saturating Ab f12 19838-6-N03-A
human Sdc2 [4] = biological target: T1, human Sdc2; test: Kd (human Sdc2), summary table of the mAbs
human Sdc2 [5] = biological target: T1, human Sdc2; test: Octet tandem binning; saturating Ab m4 19844-R4M-P1-A10
Outline: (§1)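 Octet sensors bearing 100 nM human Sdc2 got a 240 s saturating-antibody dip at 25 μg/ml and then a 180 s competitor dip at 5 μg/ml. Signal ratios are relative to buffer in place of the saturating step.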

human Sdc2 [6] = biological target: T1, human Sdc2; test: Octet tandem binning; saturating Ab f11 19838-20-H19-A
human Sdc2 [7] = biological target: T1, human Sdc2; test: Octet tandem binning; saturating Ab m6 19838-20H19-AA (marked non-binding ligand)
human Sdc2 [8] = biological target: T1, human Sdc2; test: Octet tandem binning; saturating Ab f4 19844-R3-P3-C11
Outline: as §1

human Sdc2 [9] = biological target: T1, human Sdc2; test: Octet tandem binning; saturating Ab f6 19844-R3-P3-E09
Outline: as §1

human Sdc2 [10] = biological target: T1, human Sdc2; test: Octet BLI, AHC sensor loaded with the antibody, huSdc2 as sample; Full R2 0.9525
Experimental: In order to characterize the binding affinity and in vivo/in vitro functional ability of the twelve clones generated by the previous studies and disclosed in Table 1, a series of assays were performed on each clone. These assays measured the affinity of each antibody clone for human, pig, and mouse Sdc2 using an Octet® binding assay system. Additionally, the functional ability of each clone to inhibit VEGFA-driven permeability (see Santiago, et al. (2021) J Am Heart Assoc. 10(18):e020521) was assessed in two therapeutic settings: a “prevention” study in which three concentrations of antibody (5 μg/ml, 10 μg/ml, 15 μg/ml, 20 μg/ml, and/or 40 μg/ml depending on the study) were pre-incubated for an hour before administration of 100 ng/ml of VEGFA, and a “treatment” study in which 3 hours of pre-treatment with 100 ng/ml VEGFA were followed by treatment with antibody at 20 μg/ml or 40 μg/ml. Results are shown for 8-G17 in FIG. 8 and FIG. 9, 20-H19-AB in FIG. 10 and FIG. 11 (FIG. 12 for monkey ECs), R3-P3-C11 in FIG. 13 and FIG. 14, R4M-P3-E06 in FIG. 15 and FIG. 16, R3-P3-E09 in FIG. 17 and FIG. 18, R3-P1-C02 in FIG. 19 and FIG. 20, R3-P3-A12 in FIG. 21 and FIG. 22, R4M-P3-A12 in FIG. 23 and FIG. 24, and R4M-P1-A10 in FIG. 25 and FIG. 26.

human Sdc2 [11] = biological target: T1, human Sdc2; test: Octet tandem binning; saturating Ab m5 19844-R4M-P3-A12 (row boxed, self-self >0.09)
Outline: as §1

human Sdc2 [12] = biological target: T1, human Sdc2; test: Octet tandem binning; saturating Ab f10 19838-10-I12-A
human Sdc2 [13] = biological target: T1, human Sdc2; test: Octet BLI, heading box over the sensorgram
human Sdc2 [14] = biological target: T1, human Sdc2; test: Octet tandem binning; saturating Ab m1 19838-20H19-AB
human Sdc2 [15] = biological target: T1, human Sdc2; test: Octet tandem binning; saturating Ab f3 19838-6N03-A
human Sdc2 [16] = biological target: T1, human Sdc2; test: Octet BLI, AHC sensor loaded with the antibody, huSdc2 as sample (curves huSdc2, 2000 and 1000, unit inferred); Full R2 0.9525
human Sdc2 [17] = biological target: T1, human Sdc2; test: Octet tandem binning; Buffer in place of a saturating Ab
human Sdc2 [18] = biological target: T1, human Sdc2; test: Octet tandem binning; saturating Ab m8 19844-R4M-P1-B01 (marked non-binding ligand)
[19] = biological target: human Sdc2 on Human Umbilical Vein Endothelial Cells (HUVEC) (human, UniProt P34741 19-201); test: cell-based or functional assay
human Sdc2 [20] = biological target: T1, human Sdc2; test: Octet tandem binning; saturating Ab f8 19844-R4M-P2-C02
human Sdc2 [21] = biological target: T1, human Sdc2; test: Octet tandem binning; saturating Ab m2 19838-8G17-A
human Sdc2 [22] = biological target: T1, human Sdc2; test: Octet tandem binning; saturating Ab f9 19838-6-E17-A
human Sdc2 [23] = biological target: T1, human Sdc2; test: Octet tandem binning; saturating Ab f7 19844-R3-P3-A12
pig Sdc2 [24] = biological target: T2, pig Sdc2 (pig, UniProt F1S0L5 19-145); test: Octet BLI, HIS1K sensor loaded with pigSdc2, antibody as sample; Full R2 0.9708
T2 construct: also called pSdc2

human Sdc2 [25] = biological target: T1, human Sdc2; test: Octet BLI, HIS1K sensor loaded with huSdc2, antibody as sample; Full R2 0.9663
mouse Sdc2 [26] = biological target: T3, mouse Sdc2 (mouse, UniProt P43407 19-145, limits assumed); test: Octet BLI, HIS1K sensor loaded with moSdc2, antibody as sample; Full R2 0.8674
T3 construct: Immobilised on Maxisorp plates for panning and ELISA; also called mSdc2; moSdc2

pig Sdc2 [27] = biological target: T2, pig Sdc2; test: Octet BLI, heading box over the sensorgram; the box prints nm, the table gives 4.74E-09 M
human Sdc2 [28] = biological target: T1, human Sdc2; test: Octet BLI, heading box over the sensorgram; remark: listed apart in the source
mouse Sdc2 [29] = biological target: T3, mouse Sdc2; test: Octet BLI, heading box over the sensorgram
human Sdc2 [30] = biological target: T1, human Sdc2; test: Octet tandem binning; saturating Ab f5 19844-R4M-P3-E06
mouse Sdc2 [31] = biological target: T3, mouse Sdc2; test: Octet BLI, HIS1K sensor loaded with moSdc2, antibody as sample (curves 111.1, 37, 12.3, 4.1, 1.4, unit inferred); Full R2 0.8674

T3 sequence (P43407 19-145 limits assumed): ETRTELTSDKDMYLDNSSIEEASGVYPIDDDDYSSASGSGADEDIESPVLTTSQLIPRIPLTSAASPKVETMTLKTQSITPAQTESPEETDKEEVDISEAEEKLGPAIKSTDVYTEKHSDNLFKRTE
T1 sequence (P34741 19-144 limits assumed): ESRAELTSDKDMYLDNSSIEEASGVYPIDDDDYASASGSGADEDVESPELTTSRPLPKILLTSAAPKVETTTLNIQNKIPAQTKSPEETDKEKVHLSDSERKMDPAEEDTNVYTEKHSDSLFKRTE
human Sdc2 on Human Umbilical Vein Endothelial Cells (HUVEC), sequence (P34741 19-201 limits assumed): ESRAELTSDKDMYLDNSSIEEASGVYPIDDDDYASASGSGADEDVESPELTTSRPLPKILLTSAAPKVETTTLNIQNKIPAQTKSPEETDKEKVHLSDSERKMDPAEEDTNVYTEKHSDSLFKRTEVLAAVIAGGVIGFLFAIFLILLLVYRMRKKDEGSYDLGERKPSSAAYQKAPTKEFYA

Binder	raw competing-Ab binding signal (human Sdc2 [1])	raw competing-Ab binding signal (human Sdc2 [3])	Kd (human Sdc2 [4]) [nM]	raw competing-Ab binding signal (human Sdc2 [5])	raw competing-Ab binding signal (human Sdc2 [6])	raw competing-Ab binding signal (human Sdc2 [7])	raw competing-Ab binding signal (human Sdc2 [8])	raw competing-Ab binding signal (human Sdc2 [9])	raw competing-Ab binding signal (human Sdc2 [11])	raw competing-Ab binding signal (human Sdc2 [12])	raw competing-Ab binding signal (human Sdc2 [14])	raw competing-Ab binding signal (human Sdc2 [15])	raw competing-Ab binding signal (human Sdc2 [17])	raw competing-Ab binding signal (human Sdc2 [18])	% Inhibition of VEGFA-induced permeability at 24hrs (20ug/ml) [19] [%]	raw competing-Ab binding signal (human Sdc2 [20])	raw competing-Ab binding signal (human Sdc2 [21])	raw competing-Ab binding signal (human Sdc2 [22])	raw competing-Ab binding signal (human Sdc2 [23])	further results
B1	0.247	0.252	448	0.116	0.311	0.251	0.0598	0.025	0.223	0.241	0.284	0.209	0.256	0.25	95	0.0709	0.183	0.231	0.0799	raw competing-Ab binding signal (human Sdc2 [2]): 0.0913; koff (human Sdc2 [10]): 0.041 s⁻¹; kon (human Sdc2 [10]): 84000 M⁻¹ s⁻¹; Kd (human Sdc2 [13]): ~480 nM; Kd (human Sdc2 [16]): 488 nM
B2	0.24	0.233	2.81	0.126	0.286	0.254	0.0466	0.0516	0.231	0.235	0.27	0.221	0.223	0.204	100	0.0877	0.207	0.227	0.103	Kd (pig Sdc2 [24]): 4.74 nM; koff (pig Sdc2 [24]): 0.0103 s⁻¹; kon (pig Sdc2 [24]): 2.16e+06 M⁻¹ s⁻¹; Kd (human Sdc2 [25]): 2.81 nM; koff (human Sdc2 [25]): 0.00946 s⁻¹; kon (human Sdc2 [25]): 3.36e+06 M⁻¹ s⁻¹; koff (mouse Sdc2 [26]): 0.114 s⁻¹; Kd (pig Sdc2 [27]): ~4.74 nM; Kd (human Sdc2 [28]): ~2.81 nM; Kd (mouse Sdc2 [29]): ~2.44 nM; raw competing-Ab binding signal (human Sdc2 [30]): -0.0088; Kd (mouse Sdc2 [31]): 2.44 nM
